# Data: patent US8969053B2, “Mutant YqhD enzyme for the production of a biochemical by fermentation” (Metabolic Explorer, priority 2009, dated 2015)
# Substitutions are numbered along the chain they refer to. In names and notes the source's numbering stands. Several values for one entry are separate records, joined by “and”; a condition that tells them apart may be missing. Identical values can stand only once.
# B1: E. coli YqhD variant YqhD*(G149S A286T) (Escherichia coli K-12; A286T/G149S) (protein)
# chain: MNNFNLHTPTRILFGKGAIAGLREQIPHDARVLITYGGGSVKKTGVLDQVLDALKGMDVLEFGGIEPNPAYETLMNAVKLVREQKVTFLLAVGGGSVLDGTKFIAAAANYPENIDPWHILQTGGKEIKSAIPMGCVLTLPATGSESNASAVISRKTTGDKQAFHSAHVQPVFAVLDPVYTYTLPPRQVANGVVDAFVHTVEQYVTKPVDAKIQDRFAEGILLTLIEDGPKALKEPENYDVRANVMWAATQALNGLIGAGVPQDWATHMLGHELTAMHGLDHAQTLTIVLPALWNEKRDTKRAKLLQYAERVWNITEGSDDERIDAAIAATRNFFEQLGVPTHLSDYGLDGSSIPALLKKLEEHGMTQLGENHDITLDVSRRIYEAAR
# B2: E. coli YqhD variant YqhD*(G149S) (Escherichia coli K-12; G149S) (protein)
# chain: B1 chain with T286A
# B3: Escherichia coli MG1655 YqhD, native (wild type), SEQ ID NO: 56 (Escherichia coli K-12) (protein)
# chain: B1 chain with S149G, T286A
# B4: E. coli YqhD variant YqhD*(G149E) (Escherichia coli K-12; G149E) (protein)
# chain: B1 chain with S149E, T286A
# How the values were obtained:
# [1] = biological target: T1, Escherichia coli MG1655 YqhD, native (wild type), SEQ ID NO: 56 (Escherichia coli, UniProt Q46856); assay: inhibition by NADP+, native YqhD; assay type: biochemical, E. coli
# T1 construct: made in house; host or cells: E. coli MG1655 ΔyqhD::Km carrying pTRC99A-yqhD
# T1 sequence (Q46856 1-387): B1 chain with S149G, T286A
# Procedure: (§1) Methylglyoxal reductase activity was assayed by measuring the initial rate of NADPH oxidation with a spectrophotometer at a wavelength of 340 nm and at a constant temperature of 37° C. The reaction mixture using methylglyoxal as substrate was carried out in 20 mM Hepes pH 7.5, 0.1 mM Zinc sulphate, 0.2 mM NADPH, 0.6 μg of purified enzyme in a final volume of 1 ml. The reaction mixture was incubated for 5 min at 37° C. and then the reaction was initiated by the addition of the substrate methylglyoxal at a final concentration of 10 mM. Control assay (blank), lacking the substrate was run in parallel and the value measured for the control was subtracted to the value measured for the assay to take into account non-specific oxidation of NADPH.
# (§2) The NADP+ inhibition constant for three purified enzymes (yqhD, yqhD*(G149E) and yqhD*(G149S A286T)) were determined in the conditions described for the activity assay, excepted for the concentration of methylglyoxal that was increased to 20 mM. […] Five concentrations of the inhibitor NADP+ were used (0-0.05-0.1-0.2-0.5 mM) and the kinetics were recorded for each condition of inhibition. The NADP+ inhibition constant (Ki) of each protein was determined with the module enzyme kinetic from the software Sigma Plot (Systat Software Inc, San Jose, Calif.). […]
# [2] = biological target: T2, E. coli YqhD variant YqhD*(G149S A286T) (Escherichia coli, UniProt Q46856, A286T/G149S); assay: inhibition by NADP+, YqhD*(G149S A286T); assay type: biochemical
# T2 construct: made in house; host or cells: E. coli MG1655 ΔyqhD::Km carrying pTRC99A-yqhD*(G149S)(A286T)
# T2 sequence (Q46856 1-387 G149S/A286T): B1 chain
# Procedure: as §1, §2
# [3] = biological target: T3, E. coli YqhD variant YqhD*(G149E) (Escherichia coli, UniProt Q46856, G149E); assay: inhibition by NADP+, YqhD*(G149E); assay type: biochemical
# T3 construct: made in house; host or cells: E. coli MG1655 ΔyqhD::Km carrying pTRC99A-yqhD*(G149E)
# T3 sequence (Q46856 1-387 G149E): B1 chain with S149E, T286A
# Procedure: as §1, §2
# YqhD single mutant Q202A = settings: versus parent YqhD, Li et al, 2008; cited from earlier work
# [4] = tested on: YqhD double mutant D99Q N147H; settings: versus parent YqhD, Li et al, 2008; cited from earlier work
# YqhD (purified) = settings: furfural reductase study, Miller et al (2009); read-out: Km value for NADPH; cited from earlier work
# [5] = Methylglyoxal reductase activity assay, kinetics of purified YqhD enzymes toward methylglyoxal; assay type: biochemical, E. coli; settings: for Kinetic parameters (Km, kcat, kcat/Km) compared to the native protein / Specific activity compared to that of YqhD: in words
# Procedure: as §1
# (§3) One unit of enzyme activity was defined as the amount of enzyme that consumed 1 μmol substrate per minute under the conditions of the assay. Specific enzyme activity was expressed as units per mg of protein.
# (§4) Kinetic constants (Km, kcat and kcat/Km) for the four purified enzymes (yqhD, yqhD*(G149E), yqhD*(G149S) and yqhD*(G149S A286T)) toward methylglyoxal were determined using the activity assay previously described. In this case the reaction was started by addition of the purified enzyme. Seven methylglyoxal concentrations between 1.3 mM and 30 mM were analysed for each enzyme. For all kinetics, initial velocity was determined in triplicate for all substrate concentrations.
# Kinetic constants (Km and Vmax) of each protein were determined with the module enzyme kinetics from the software Sigma Plot (Systat Software Inc, San Jose, Calif.). […] The different kinetic parameters of four YqhD enzymes were compiled in Table 6.
# [6] = Inhibition of the YqhD enzymes by NADP+ (competitive inhibition model); assay type: biochemical, E. coli; settings: NADP+ inhibition experiment, 20 mM methylglyoxal
# Procedure: as §1
# The NADP+ inhibition constant for three purified enzymes (yqhD, yqhD*(G149E) and yqhD*(G149S A286T)) were determined in the conditions described for the activity assay, excepted for the concentration of methylglyoxal that was increased to 20 mM. Enzyme kinetics with regards to NADPH were realised with increasing concentration of NADPH between 50 and 200 μM. Five concentrations of the inhibitor NADP+ were used (0-0.05-0.1-0.2-0.5 mM) and the kinetics were recorded for each condition of inhibition. The NADP+ inhibition constant (Ki) of each protein was determined with the module enzyme kinetic from the software Sigma Plot (Systat Software Inc, San Jose, Calif.). A model of competitive inhibition was fitted by the software.
# [7] = Methylglyoxal reductase activity assay, kinetics of purified YqhD enzymes toward co-factor NADPH; assay type: biochemical, E. coli
# Procedure: as §1, §3
# as §4, with “Nine NADPH” for “Seven methylglyoxal”, “6 μM” for “1.3 mM”, “300 μM” for “30 mM”, “co-factor” for “substrate”
# Kinetic constants (Km and Vmax) of each protein were determined with the module enzyme kinetics from the software Sigma Plot (Systat Software Inc, San Jose, Calif.). […] The different kinetic parameters of four YqhD enzymes were compiled in Table 7.
# [8] = substrate: CC(=O)C=O; assay: purified protein, by the assay type; settings: other: methylglyoxal 1.3-30 mM, 0.2 mM NADPH, pH 7.5, 37° C.
# [9] = substrate: NC(=O)C1=CN([C@@H]2O[C@H](COP(=O)(O)OP(=O)(O)OC[C@H]3O[C@@H](n4cnc5c(N)ncnc54)[C@H](OP(=O)(O)O)[C@@H]3O)[C@@H](O)[C@H]2O)C=CC1; assay: purified protein, by the assay type; settings: other: NADPH 6-300 μM, 10 mM methylglyoxal, pH 7.5, 37° C.
# Procedure: Kinetic constants (Km, kcat and kcat/Km) for the four purified enzymes (yqhD, yqhD*(G149E), yqhD*(G149S) and yqhD*(G149S A286T)) toward methylglyoxal were determined using the activity assay previously described. In this case the reaction was started by addition of the purified enzyme. Nine NADPH concentrations between 6 μM and 300 μM were analysed for each enzyme. For all kinetics, initial velocity was determined in triplicate for all co-factor concentrations.
Molecule,Specific activity [5],Specific activity [6],Specific activity [7],Km [8],kcat [8],kcat/Km [8],Km [9],kcat [9],kcat/Km [9],further results
NC(=O)c1ccc[n+]([C@@H]2O[C@H](COP(=O)([O-])OP(=O)(O)OC[C@H]3O[C@@H](n4cnc5c(N)ncnc54)[C@H](OP(=O)(O)O)[C@@H]3O)[C@@H](O)[C@H]2O)c1 [NADP+],–,–,–,–,–,–,–,–,–,Ki [1]: 68 µM; Ki [2]: 16 ± 2.5 µM; Ki [3]: 28 ± 5 µM
"O=CCCO [3-HPA, 3-hydroxypropionaldehyde]",–,–,–,–,–,–,–,–,–,affinity (Km) for 3-HPA (YqhD single mutant Q202A): improved affinity (lower Km); catalytic efficiency (Kcat/Km) for 3-HPA (YqhD single mutant Q202A): improved catalytic efficiency; affinity (Km) for 3-HPA [4]: improved affinity (lower Km); catalytic efficiency (Kcat/Km) for 3-HPA [4]: improved catalytic efficiency
NC(=O)C1=CN([C@@H]2O[C@H](COP(=O)(O)OP(=O)(O)OC[C@H]3O[C@@H](n4cnc5c(N)ncnc54)[C@H](OP(=O)(O)O)[C@@H]3O)[C@@H](O)[C@H]2O)C=CC1 [NADPH],–,–,–,–,–,–,–,–,–,Km (YqhD (purified)): 8 µM
B1,2.69 ± 0.10 µmol/min/mg,5.25 ± 0.183 µmol/min/mg,3.17 ± 0.02 µmol/min/mg,3280 ± 380 µM,1.89 ± 0.07 s⁻¹,577 ± 88 M⁻¹ s⁻¹,20 ± 2.2 µM,2.2 ± 0.1 s⁻¹,1.22 E+05 M−1s−1 and 1.13E+05 ± 1.3E+04 M−1s−1,"Specific activity as share of the specific activity of YqhD [5]: 69%; Kinetic parameters (Km, kcat, kcat/Km) compared to the native protein [5]: identical to the native protein"
B2,3.80 ± 0.12 µmol/min/mg,–,3.78 ± 0.15 µmol/min/mg,3370 ± 340 µM,2.67 ± 0.09 s⁻¹,792 ± 105 M⁻¹ s⁻¹,22 ± 3.7 µM,2.7 ± 0.1 s⁻¹,122000 ± 25000 M⁻¹ s⁻¹,"Kinetic parameters (Km, kcat, kcat/Km) compared to the native protein [5]: identical to the native protein; Specific activity compared to that of YqhD [5]: similar"
B3,3.91 ± 0.11 µmol/min/mg,3.63 ± 0.284 µmol/min/mg,2.99 ± 0.1 µmol/min/mg,4810 ± 410 µM,2.74 ± 0.08 s⁻¹,570 ± 65 M⁻¹ s⁻¹,32 ± 4.2 µM,2.1 ± 0.1 s⁻¹,66000 ± 11000 M⁻¹ s⁻¹,–
B4,7.65 ± 0.31 µmol/min/mg,5.53 ± 0.292 µmol/min/mg,4.86 ± 0.08 µmol/min/mg,7800 ± 790 µM,5.38 ± 0.21 s⁻¹,689 ± 98 M⁻¹ s⁻¹,28 ± 1.8 µM,3.4 ± 0.1 s⁻¹,122000 ± 9800 M⁻¹ s⁻¹,Specific activity compared to that of YqhD [5]: almost doubled
